Measurements from publication PMC5772480, “Galectin-13, a different prototype galectin, does not bind β-galacto-sides and forms dimers via intermolecular disulfide bridges between Cys-136 and Cys-138” (Scientific Reports, 2018).
Converted amounts (≈) assume the structure as drawn.

Tests used:
[1] = biological target: T1, Gal-13 (galectin-13, placental protein 13, PP13) (Homo sapiens, UniProt Q9UHV8, R53H); test: inhibition of hemagglutination of chicken erythrocytes; format: cell-based; conditions: pH 7.4 PBS, on ice; minimum inhibition concentration
T1 construct: gene LGALS13; full length 1-139, synthetic gene in pET28a, E. coli BL21(DE3); N-terminal His tag removed by thrombin; disulfide-linked homodimer
T1 sequence (Q9UHV8 1-139 R53H): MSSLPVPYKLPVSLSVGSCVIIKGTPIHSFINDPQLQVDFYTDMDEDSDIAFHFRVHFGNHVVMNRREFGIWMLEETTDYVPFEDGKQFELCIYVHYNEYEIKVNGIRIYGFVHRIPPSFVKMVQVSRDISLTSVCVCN
From the text: inhibition of hemagglutination of chicken erythrocytes on Gal-13 (galectin-13, placental protein 13, PP13) | maltose and arabinose could inhibit the biological activity of […]

[2] = biological target: T2, Galectin-13 (wild type) (human), Q9UHV8; test: non-reducing SDS-PAGE; SDS-PAGE of Gal-13 with or without DTT reduction; dimer band at approximately 38 kDa without DTT; conditions: remark: other sources report otherwise
T2 chain: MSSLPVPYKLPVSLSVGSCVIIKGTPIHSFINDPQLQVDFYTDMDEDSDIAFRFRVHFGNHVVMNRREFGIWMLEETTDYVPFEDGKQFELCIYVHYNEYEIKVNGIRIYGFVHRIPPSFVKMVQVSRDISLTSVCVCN

[3] = biological target: T2, Galectin-13 (wild type) (human), Q9UHV8; test: native gel or EMSA; native PAGE, 15% separating gel, Tris-glycine buffer, 5 μg protein per lane, 90 V for 3 h; migration compared with Gal-1 (dimer) and C136S/C138S (monomer); conditions: remark: other sources report otherwise
[4] = biological target: T2, Galectin-13 (wild type) (human), Q9UHV8; test: SEC; Superdex 75 10/300, PBS pH 7.4, 25 °C, 100 μg protein loaded, 0.5 ml/min; apparent molecular weights from a standard curve; Gal-13 also run in the presence of 10 mM DTT (mostly monomer, small amount of dimer); conditions: remark: other sources report otherwise

Work on `OC[C@H]1O[C@H](O[C@H]2[C@H](O)[C@@H](O)C(O)O[C@@H]2CO)[C@H](O)[C@@H](O)[C@@H]1O` (some centres unmarked) [maltose] yielded an MIC [1] of 12.5 mM (≈ 4.28 mg/mL).

`OC1OC[C@H](O)[C@H](O)[C@H]1O` (some centres unmarked) [arabinose] gave an MIC [1] of 200 mM (≈ 30 mg/mL).

B1: Galectin-13 (wild type), Q9UHV8 1-139 (natural protein)
chain: MSSLPVPYKLPVSLSVGSCVIIKGTPIHSFINDPQLQVDFYTDMDEDSDIAFRFRVHFGNHVVMNRREFGIWMLEETTDYVPFEDGKQFELCIYVHYNEYEIKVNGIRIYGFVHRIPPSFVKMVQVSRDISLTSVCVCN
modifications: here or on the partner: intermolecular disulfide bonds Cys136-Cys138' and Cys138-Cys136' in the dimer; intermolecular disulfide bonds Cys136-Cys138' and Cys138-Cys136' in the dimer
With B1 the stoichiometry N [2] was 2, the stoichiometry N [3] was 2 and the stoichiometry N [4] was 2.
